Data reported in patent publication US20180155451A1 (published 2018).

B1: GpH7-B3 variant H268_19Q/GpL16-k0 (antibody, human IgG1, kappa)
heavy: not shown
light: DIVMTQSPLSLPVTPGEPASISCQASESLVHSNRNTYLHWYLQKPGQSPQLLIYKVSNRFSGVPDRFSGSGSGTDFTLKISRVEAEDVGVYYCSQNTHVPPTFGQGTKVEIERTVAAPSVFIFPPSDEQLKSGTASVVCLLNNFYPREAKVQWKVDNALQSGNSQESVTEQDSKDSTYSLSSTLTLSKADYEKHKVYACEVTHQGLSSPVTKSFNRGEC
notes: homodimerized, mutation in both H chains; also called Ho Ab
B2: GpH7-B3 variant I336_03V/GpL16-k0 (antibody, human IgG1, kappa)
heavy: not shown
light: B1 light
notes: as for B1
B3: GpH7-B3 variant L328_14T/GpL16-k0 (antibody, human IgG1, kappa)
heavy: not shown
light: B1 light
notes: as for B1
B4: GpH7-B3 variant E333_14T/GpL16-k0 (antibody, human IgG1, kappa)
heavy: not shown
light: B1 light
notes: as for B1
B5: GpH7-B3 variant I336_18N/GpL16-k0 (antibody, human IgG1, kappa)
heavy: not shown
light: B1 light
notes: as for B1
B6: GpH7-B3 variant A327_09D/GpL16-k0 (antibody, human IgG1, kappa)
heavy: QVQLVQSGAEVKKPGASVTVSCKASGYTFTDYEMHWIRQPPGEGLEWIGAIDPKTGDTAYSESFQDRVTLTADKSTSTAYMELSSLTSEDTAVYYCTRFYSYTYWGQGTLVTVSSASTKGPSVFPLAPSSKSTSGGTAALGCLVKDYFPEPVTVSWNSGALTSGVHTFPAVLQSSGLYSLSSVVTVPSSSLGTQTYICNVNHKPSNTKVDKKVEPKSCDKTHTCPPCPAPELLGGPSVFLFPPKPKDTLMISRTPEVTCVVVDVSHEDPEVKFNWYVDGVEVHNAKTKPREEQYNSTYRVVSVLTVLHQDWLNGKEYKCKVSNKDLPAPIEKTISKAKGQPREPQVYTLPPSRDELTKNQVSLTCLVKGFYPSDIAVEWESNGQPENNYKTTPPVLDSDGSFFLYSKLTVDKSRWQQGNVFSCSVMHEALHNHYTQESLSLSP
light: B1 light
notes: as for B1
B7: GpH7-B3 variant T335_10E/GpL16-k0 (antibody, human IgG1, kappa)
heavy: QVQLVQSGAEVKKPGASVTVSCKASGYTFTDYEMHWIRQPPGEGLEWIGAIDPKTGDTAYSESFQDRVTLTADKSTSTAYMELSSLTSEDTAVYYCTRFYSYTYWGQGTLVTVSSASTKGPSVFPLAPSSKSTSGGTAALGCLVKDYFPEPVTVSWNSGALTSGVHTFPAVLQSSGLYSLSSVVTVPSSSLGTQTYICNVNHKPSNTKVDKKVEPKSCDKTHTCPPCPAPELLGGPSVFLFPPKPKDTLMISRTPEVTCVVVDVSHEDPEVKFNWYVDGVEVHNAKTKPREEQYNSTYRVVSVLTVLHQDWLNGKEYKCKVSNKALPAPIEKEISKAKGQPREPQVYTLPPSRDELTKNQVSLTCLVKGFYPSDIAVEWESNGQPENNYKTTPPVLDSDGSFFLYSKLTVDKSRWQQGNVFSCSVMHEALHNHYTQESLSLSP
light: B1 light
notes: as for B1
B8: GpH7-B3 variant K334_08L/GpL16-k0 (antibody, human IgG1, kappa)
heavy: not shown
light: B1 light
notes: as for B1
B9: GpH7-B3 variant S337_09D/GpL16-k0 (antibody, human IgG1, kappa)
heavy: not shown
light: B1 light
notes: as for B1
B10: GpH7-B3 variant E333_13S/GpL16-k0 (antibody, human IgG1, kappa)
heavy: not shown
light: B1 light
notes: as for B1
B11: GpH7-B3 variant L328_06M/GpL16-k0 (antibody, human IgG1, kappa)
heavy: not shown
light: B1 light
notes: as for B1
B12: GpH7-B3 variant I336_08L/GpL16-k0 (antibody, human IgG1, kappa)
heavy: not shown
light: B1 light
notes: as for B1
B13: GpH7-B3 variant L235_20W/GpL16-k0 (antibody, human IgG1, kappa)
heavy: not shown
light: B1 light
notes: as for B1
B14: GpH7-B3 variant T335_15Y/GpL16-k0 (antibody, human IgG1, kappa)
heavy: not shown
light: B1 light
notes: as for B1
B15: GpH7-B3 variant L235_04F/GpL16-k0 (antibody, human IgG1, kappa)
heavy: not shown
light: B1 light
notes: as for B1
B16: GpH7-B3 variant G236_04F/GpL16-k0 (antibody, human IgG1, kappa)
heavy: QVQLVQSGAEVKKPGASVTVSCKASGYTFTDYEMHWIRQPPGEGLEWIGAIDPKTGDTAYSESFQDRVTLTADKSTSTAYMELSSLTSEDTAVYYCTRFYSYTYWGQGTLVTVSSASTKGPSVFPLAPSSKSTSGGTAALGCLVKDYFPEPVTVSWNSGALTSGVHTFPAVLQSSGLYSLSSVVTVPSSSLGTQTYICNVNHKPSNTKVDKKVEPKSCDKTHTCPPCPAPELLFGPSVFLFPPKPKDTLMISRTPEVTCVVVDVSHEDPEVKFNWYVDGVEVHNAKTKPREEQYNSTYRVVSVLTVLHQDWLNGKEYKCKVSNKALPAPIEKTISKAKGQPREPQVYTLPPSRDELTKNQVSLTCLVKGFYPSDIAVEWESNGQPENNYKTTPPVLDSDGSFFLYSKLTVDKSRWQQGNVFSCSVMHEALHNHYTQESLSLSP
light: B1 light
notes: as for B1
B17: GpH7-B3 variant S267_02A/GpL16-k0 (antibody, human IgG1, kappa)
heavy: not shown
light: B1 light
notes: as for B1
B18: GpH7-B3 variant G236_14T/GpL16-k0 (antibody, human IgG1, kappa)
heavy: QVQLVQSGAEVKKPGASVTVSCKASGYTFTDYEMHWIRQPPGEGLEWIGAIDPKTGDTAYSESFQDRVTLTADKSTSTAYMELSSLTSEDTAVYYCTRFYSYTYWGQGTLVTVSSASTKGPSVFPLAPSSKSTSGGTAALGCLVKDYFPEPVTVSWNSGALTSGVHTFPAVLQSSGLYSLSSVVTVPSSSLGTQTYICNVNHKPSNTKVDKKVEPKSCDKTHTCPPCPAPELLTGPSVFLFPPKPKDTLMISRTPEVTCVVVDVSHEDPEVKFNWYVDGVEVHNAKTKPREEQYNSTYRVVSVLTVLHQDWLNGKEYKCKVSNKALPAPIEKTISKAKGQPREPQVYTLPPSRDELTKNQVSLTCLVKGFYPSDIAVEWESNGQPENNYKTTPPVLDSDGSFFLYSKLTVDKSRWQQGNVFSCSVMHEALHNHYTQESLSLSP
light: B1 light
notes: as for B1
B19: GpH7-B3 variant L235_15Y/GpL16-k0 (antibody, human IgG1, kappa)
heavy: not shown
light: B1 light
notes: as for B1
B20: GpH7-B3 variant K326_12R/GpL16-k0 (antibody, human IgG1, kappa)
heavy: not shown
light: B1 light
notes: as for B1
B21: GpH7-B3 variant K326_01G/GpL16-k0 (antibody, human IgG1, kappa)
heavy: not shown
light: B1 light
notes: as for B1
B22: GpH7-B3 variant K326_07I/GpL16-k0 (antibody, human IgG1, kappa)
heavy: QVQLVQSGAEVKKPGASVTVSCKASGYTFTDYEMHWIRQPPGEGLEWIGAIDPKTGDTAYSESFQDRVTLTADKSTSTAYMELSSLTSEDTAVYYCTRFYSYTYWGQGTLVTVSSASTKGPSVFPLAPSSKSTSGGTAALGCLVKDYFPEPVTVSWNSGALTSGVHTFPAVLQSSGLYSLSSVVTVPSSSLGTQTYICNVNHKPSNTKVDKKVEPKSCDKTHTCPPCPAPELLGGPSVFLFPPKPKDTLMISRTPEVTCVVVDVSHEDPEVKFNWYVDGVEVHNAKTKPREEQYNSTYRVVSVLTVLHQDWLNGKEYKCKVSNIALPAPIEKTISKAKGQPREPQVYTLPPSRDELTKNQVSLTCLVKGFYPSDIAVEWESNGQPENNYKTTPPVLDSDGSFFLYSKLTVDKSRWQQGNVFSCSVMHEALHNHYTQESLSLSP
light: B1 light
notes: as for B1
B23: GpH7-B3 variant S324_02A/GpL16-k0 (antibody, human IgG1, kappa)
heavy: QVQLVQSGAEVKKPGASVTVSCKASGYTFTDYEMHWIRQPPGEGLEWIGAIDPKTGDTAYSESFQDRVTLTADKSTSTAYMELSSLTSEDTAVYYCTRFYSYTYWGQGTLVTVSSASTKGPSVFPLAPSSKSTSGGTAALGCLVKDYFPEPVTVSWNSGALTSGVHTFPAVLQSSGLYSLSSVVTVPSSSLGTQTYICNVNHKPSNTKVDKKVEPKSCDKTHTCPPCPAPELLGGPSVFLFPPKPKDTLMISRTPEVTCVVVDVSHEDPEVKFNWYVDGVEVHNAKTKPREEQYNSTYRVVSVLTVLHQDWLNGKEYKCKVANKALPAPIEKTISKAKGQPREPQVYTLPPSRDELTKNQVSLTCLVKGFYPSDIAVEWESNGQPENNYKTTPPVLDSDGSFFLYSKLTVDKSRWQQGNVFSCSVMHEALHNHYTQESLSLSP
light: B1 light
notes: as for B1
B24: GpH7-B3 variant V266_07I/GpL16-k0 (antibody, human IgG1, kappa)
heavy: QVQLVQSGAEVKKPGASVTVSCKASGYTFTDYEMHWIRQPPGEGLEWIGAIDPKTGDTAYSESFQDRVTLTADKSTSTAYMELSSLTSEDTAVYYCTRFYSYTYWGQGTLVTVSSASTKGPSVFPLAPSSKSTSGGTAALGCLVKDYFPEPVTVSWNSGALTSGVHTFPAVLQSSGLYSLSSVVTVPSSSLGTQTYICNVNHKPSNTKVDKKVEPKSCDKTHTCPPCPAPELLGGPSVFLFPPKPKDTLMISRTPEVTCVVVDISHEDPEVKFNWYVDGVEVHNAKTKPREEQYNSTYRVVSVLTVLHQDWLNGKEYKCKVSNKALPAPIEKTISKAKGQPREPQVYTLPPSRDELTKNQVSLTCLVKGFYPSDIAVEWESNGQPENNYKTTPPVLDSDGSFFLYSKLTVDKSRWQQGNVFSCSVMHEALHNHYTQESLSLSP
light: B1 light
notes: as for B1
B25: GpH7-B3 variant E333_04F/GpL16-k0 (antibody, human IgG1, kappa)
heavy: not shown
light: B1 light
notes: as for B1
B26: GpH7-B3 variant K334_04F/GpL16-k0 (antibody, human IgG1, kappa)
heavy: not shown
light: B1 light
notes: as for B1
B27: GpH7-B3 variant I336_06M/GpL16-k0 (antibody, human IgG1, kappa)
heavy: not shown
light: B1 light
notes: as for B1
B28: GpH7-B3 variant T335_16H/GpL16-k0 (antibody, human IgG1, kappa)
heavy: not shown
light: B1 light
notes: as for B1
B29: GpH7-B3 variant T335_07I/GpL16-k0 (antibody, human IgG1, kappa)
heavy: not shown
light: B1 light
notes: as for B1
B30: GpH7-B3 variant Y296_18N/GpL16-k0 (antibody, human IgG1, kappa)
heavy: not shown
light: B1 light
notes: as for B1
B31: GpH7-B3 variant L328_20W/GpL16-k0 (antibody, human IgG1, kappa)
heavy: not shown
light: B1 light
notes: as for B1
B32: GpH7-B3 variant K326_10E/GpL16-k0 (antibody, human IgG1, kappa)
heavy: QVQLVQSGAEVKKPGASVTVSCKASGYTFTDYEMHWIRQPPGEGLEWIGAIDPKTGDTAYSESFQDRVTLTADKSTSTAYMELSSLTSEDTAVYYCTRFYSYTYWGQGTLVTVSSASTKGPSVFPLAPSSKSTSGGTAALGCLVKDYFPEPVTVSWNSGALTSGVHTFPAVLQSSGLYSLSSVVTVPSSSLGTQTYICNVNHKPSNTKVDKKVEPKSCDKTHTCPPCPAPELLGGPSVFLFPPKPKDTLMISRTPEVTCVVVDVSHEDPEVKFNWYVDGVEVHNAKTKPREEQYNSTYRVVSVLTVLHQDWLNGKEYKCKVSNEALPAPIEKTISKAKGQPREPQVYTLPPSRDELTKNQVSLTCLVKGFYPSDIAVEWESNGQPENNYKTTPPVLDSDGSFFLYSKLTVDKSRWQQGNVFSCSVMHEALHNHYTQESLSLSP
light: B1 light
notes: as for B1
B33: GpH7-B3 variant S239_09D/GpL16-k0 (antibody, human IgG1, kappa)
heavy: not shown
light: B1 light
notes: as for B1
B34: GpH7-B3 variant A330_19Q/GpL16-k0 (antibody, human IgG1, kappa)
heavy: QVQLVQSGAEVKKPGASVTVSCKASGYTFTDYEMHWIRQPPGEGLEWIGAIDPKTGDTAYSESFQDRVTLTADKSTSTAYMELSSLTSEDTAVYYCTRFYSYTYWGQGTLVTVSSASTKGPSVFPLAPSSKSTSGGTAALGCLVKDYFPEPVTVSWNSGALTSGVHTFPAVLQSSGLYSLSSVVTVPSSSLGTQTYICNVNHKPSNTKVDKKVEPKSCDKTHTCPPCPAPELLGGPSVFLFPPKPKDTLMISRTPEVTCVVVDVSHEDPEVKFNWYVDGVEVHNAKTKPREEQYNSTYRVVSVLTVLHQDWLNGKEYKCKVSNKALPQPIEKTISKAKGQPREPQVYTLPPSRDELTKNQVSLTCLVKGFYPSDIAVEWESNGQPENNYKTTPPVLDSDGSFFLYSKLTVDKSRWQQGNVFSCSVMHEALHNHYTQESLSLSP
light: B1 light
notes: as for B1
B35: GpH7-B3 variant T335_01G/GpL16-k0 (antibody, human IgG1, kappa)
heavy: not shown
light: B1 light
notes: as for B1
B36: GpH7-B3 variant S337_10E/GpL16-k0 (antibody, human IgG1, kappa)
heavy: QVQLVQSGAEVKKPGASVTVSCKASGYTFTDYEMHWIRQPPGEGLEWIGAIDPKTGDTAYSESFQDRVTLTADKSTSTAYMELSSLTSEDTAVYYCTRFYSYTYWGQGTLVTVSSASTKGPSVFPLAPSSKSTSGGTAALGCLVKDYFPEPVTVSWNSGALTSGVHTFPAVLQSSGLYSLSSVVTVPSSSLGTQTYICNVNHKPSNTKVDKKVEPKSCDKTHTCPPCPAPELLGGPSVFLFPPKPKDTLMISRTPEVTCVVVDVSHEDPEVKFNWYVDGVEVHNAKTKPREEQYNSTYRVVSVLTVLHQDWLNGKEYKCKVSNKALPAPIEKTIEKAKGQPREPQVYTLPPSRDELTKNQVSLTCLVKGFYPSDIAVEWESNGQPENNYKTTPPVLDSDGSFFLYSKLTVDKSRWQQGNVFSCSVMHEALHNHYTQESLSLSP
light: B1 light
notes: as for B1
B37: GpH7-B3 variant T335_13S/GpL16-k0 (antibody, human IgG1, kappa)
heavy: not shown
light: B1 light
notes: as for B1
B38: GpH7-B3 variant I336_10E/GpL16-k0 (antibody, human IgG1, kappa)
heavy: not shown
light: B1 light
notes: as for B1
B39: GpH7-B3 variant K334_16H/GpL16-k0 (antibody, human IgG1, kappa)
heavy: not shown
light: B1 light
notes: as for B1
B40: GpH7-B3 variant K326_06M/GpL16-k0 (antibody, human IgG1, kappa)
heavy: not shown
light: B1 light
notes: as for B1
B41: GpH7-B3 variant E333_08L/GpL16-k0 (antibody, human IgG1, kappa)
heavy: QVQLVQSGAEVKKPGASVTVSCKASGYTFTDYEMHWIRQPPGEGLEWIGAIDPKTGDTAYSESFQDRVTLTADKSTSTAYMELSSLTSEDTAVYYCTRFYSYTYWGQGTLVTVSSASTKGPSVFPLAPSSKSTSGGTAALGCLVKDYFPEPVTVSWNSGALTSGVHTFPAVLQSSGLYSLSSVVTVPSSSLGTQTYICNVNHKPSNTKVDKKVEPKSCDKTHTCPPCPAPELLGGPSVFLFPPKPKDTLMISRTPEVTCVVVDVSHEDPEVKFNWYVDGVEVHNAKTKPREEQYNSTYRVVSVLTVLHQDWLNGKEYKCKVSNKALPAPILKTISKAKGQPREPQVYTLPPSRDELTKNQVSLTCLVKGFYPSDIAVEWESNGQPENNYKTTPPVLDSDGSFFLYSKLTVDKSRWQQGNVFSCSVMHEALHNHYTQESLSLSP
light: B1 light
notes: as for B1
B42: GpH7-B3 variant T335_19Q/GpL16-k0 (antibody, human IgG1, kappa)
heavy: not shown
light: B1 light
notes: as for B1
B43: GpH7-B3 variant K326_19Q/GpL16-k0 (antibody, human IgG1, kappa)
heavy: not shown
light: B1 light
notes: as for B1
B44: GpH7-B3 variant G236_15Y/GpL16-k0 (antibody, human IgG1, kappa)
heavy: not shown
light: B1 light
notes: as for B1

The binders below were run against FcγRIIa H (human FcγRIIa, allotype with His at position 131), extracellular domain with C-terminal His tag (human, UniProt P12318 34-217) (assay: SPR (Biacore), antibody captured on antigen peptide chip, FcγR as analyte; relative to HoCon Ab GpH7-B3/GpL16-k0 = 100).
B1 gave a Ho/Con_2aH of 102 control = 100. B2 was tested, and the Ho/Con_2aH was 90.4 control = 100. B3 was tested, and the Ho/Con_2aH was 110 control = 100. With B4 the Ho/Con_2aH was 90.4 control = 100. With B5 the Ho/Con_2aH was 94.3 control = 100. With B6 the Ho/Con_2aH was 90.1 control = 100. With B7 the Ho/Con_2aH was 105 control = 100. Work on B8 yielded a Ho/Con_2aH of 103 control = 100. B9 was tested, and the Ho/Con_2aH was 107 control = 100. B10 gave a Ho/Con_2aH of 94.6 control = 100. With B11 the Ho/Con_2aH was 100 control = 100. Work on B12 yielded a Ho/Con_2aH of 101 control = 100. Work on B13 yielded a Ho/Con_2aH of 112 control = 100. B14 showed a Ho/Con_2aH of 102 control = 100. Binder B15 has a Ho/Con_2aH of 101 control = 100. For B16, the Ho/Con_2aH was 63.2 control = 100. With B17 the Ho/Con_2aH was 120 control = 100. With B18 the Ho/Con_2aH was 94.2 control = 100. B19 gave a Ho/Con_2aH of 107 control = 100. In the case of B20, the Ho/Con_2aH is reported as 98.8 control = 100. For B21, the Ho/Con_2aH was 98.2 control = 100. For B22, the Ho/Con_2aH was 78.1 control = 100. Binder B23 has a Ho/Con_2aH of 102 control = 100. With B24 the Ho/Con_2aH was 104 control = 100. In the case of B25, the Ho/Con_2aH is reported as 93.6 control = 100. B26 was tested, and the Ho/Con_2aH was 103 control = 100. B27 showed a Ho/Con_2aH of 100 control = 100. For B28, the Ho/Con_2aH was 100 control = 100. For B29, the Ho/Con_2aH was 105 control = 100. With B30 the Ho/Con_2aH was 100 control = 100. B31 gave a Ho/Con_2aH of 112 control = 100. Binder B32 has a Ho/Con_2aH of 101 control = 100. In the case of B33, the Ho/Con_2aH is reported as 112 control = 100. Binder B34 has a Ho/Con_2aH of 99.2 control = 100. Work on B35 yielded a Ho/Con_2aH of 101 control = 100. With B36 the Ho/Con_2aH was 101 control = 100. In the case of B37, the Ho/Con_2aH is reported as 101 control = 100. With B38 the Ho/Con_2aH was 93.4 control = 100. B39 was tested, and the Ho/Con_2aH was 101 control = 100. B40 gave a Ho/Con_2aH of 101 control = 100. With B41 the Ho/Con_2aH was 96.5 control = 100. B42 showed a Ho/Con_2aH of 103 control = 100. Binder B43 has a Ho/Con_2aH of 100 control = 100. Binder B44 has a Ho/Con_2aH of 80.4 control = 100.
